{
  "source": "paper PMC6589827",
  "about": "(Biochemistry, 2019)",
  "molecules": {"B1": {"name": "ovalbumin: protein crowder isolated from fresh eggs (protein, UniProt P01012 2-386, looked up)", "Ovalbumin": "GSIGAASMEFCFDVFKELKVHHANENIFYCPIAIMSALAMVYLGAKDSTRTQINKVVRFDKLPGFGDSIEAQCGTSVNVHSSLRDILNQITKPNDVYSFSLASRLYAEERYPILPEYLQCVKELYRGGLEPINFQTAADQARELINSWVESQTNGIIRNVLQPSSVDSQTAMVLVNAIVFKGLWEKAFKDEDTQAMPFRVTEQESKPVQMMYQIGLFRVASMASEKMKILELPFASGTMSMLVLLPDEVSGLEQLESIINFEKLTEWTSSNVMEERKIKVYLPRMKMEEKYNLTSVLMAMGITDVFSSSANLSGISSAESLKISQAVHAAHAEINEAGREVVGSAEAGVDAASVSEEFRADHPFLFCIKHIATNAVLFFGRCVSP"}},
  "key": {"[1]": {"test": "ITC titration of folate into the crowders", "assay_type": "binding"}, "hemoglobin": {"target": "hemoglobin", "details": "read-out: Kd of folate for central cavity of hemoglobin; cited from earlier work"}, "EcDHFR": {"target": "EcDHFR (Escherichia coli, UniProt P0ABQ4)", "sequence (P0ABQ4 whole entry)": "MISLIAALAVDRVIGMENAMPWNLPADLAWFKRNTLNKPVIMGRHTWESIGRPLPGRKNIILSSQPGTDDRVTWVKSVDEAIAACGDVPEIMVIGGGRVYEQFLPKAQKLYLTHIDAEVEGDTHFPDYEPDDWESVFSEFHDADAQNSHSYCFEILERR", "details": "for decrease of kcat, DHF reduction by EcDHFR: crowder at 50 mg/mL"}, "R67 DHFR": {"target": "R67 DHFR (Escherichia coli, UniProt P00383)", "sequence (P00383 whole entry)": "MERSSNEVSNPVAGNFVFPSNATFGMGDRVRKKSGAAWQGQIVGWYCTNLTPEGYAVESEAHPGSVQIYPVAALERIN", "test": "Progress curve kinetics, reduction of DHF by R67 DHFR", "assay_type": "biochemical", "details": "saturating NADPH, progress curves"}, "apo-EcDHFR": {"target": "apo-EcDHFR (Escherichia coli, UniProt P0ABQ4)", "sequence (P0ABQ4 whole entry)": "as the sequence (P0ABQ4 whole entry) above", "test": "ITC, NADP+ binding to apo-EcDHFR", "design": "species or system E. coli"}, "R67 DHFR-NADP^+": {"target": "R67 DHFR-NADP^+ (Escherichia coli, UniProt P00383)", "sequence (P00383 whole entry)": "as the sequence (P00383 whole entry) above", "test": "ITC, DHF binding to binary complex of R67 DHFR and NADP+"}},
  "data": [
    {"molecule": "Nc1nc(=O)c2nc(CNc3ccc(C(=O)N[C@@H](CCC(=O)O)C(=O)O)cc3)cnc2[nH]1", "note": "[folate]", "values": [
      {"measurement": "heat of binding on titration into the crowders", "setting": "[1]", "value": "no heat of binding"},
      {"measurement": "Kd", "setting": "hemoglobin", "value": "~1000", "unit": "µM"}
    ]},
    {"molecule": "casein", "values": [
      {"measurement": "effect on kcat, DHF reduction by EcDHFR", "setting": "EcDHFR; over the range of concentrations used", "value": "did not alter the kcat"}
    ]},
    {"molecule": "lysozyme: hen egg-white lysozyme, 14,300 Da, protein crowder", "values": [
      {"measurement": "decrease of kcat, DHF reduction by EcDHFR", "setting": "EcDHFR", "value": "about 60%"},
      {"measurement": "effect on efficiency (kcat/KM) of R67 DHFR reduction of DHF", "setting": "R67 DHFR", "value": "increases the efficiency"},
      {"measurement": "decrease of affinity of NADP^+ for EcDHFR", "setting": "apo-EcDHFR; crowder at 50 mg/mL", "value": 5, "unit": "fold"}
    ]},
    {"molecule": "Hemoglobin: bovine hemoglobin, 64,500 Da, protein crowder", "values": [
      {"measurement": "weakening of R67 DHFR affinity for DHF", "setting": "R67 DHFR-NADP^+; crowder at 50 mg/mL", "value": 5.5, "unit": "fold"}
    ]},
    {"molecule": "B1", "values": [
      {"measurement": "decrease of kcat, DHF reduction by EcDHFR", "setting": "EcDHFR", "value": "about 60%"},
      {"measurement": "effect on affinity of NADP^+ for apo-EcDHFR", "setting": "apo-EcDHFR; over the concentration ranges used (up to 150 mg/mL with PVP-55)", "value": "no effect on affinity"},
      {"measurement": "effect on the affinity of R67 DHFR for DHF", "setting": "R67 DHFR-NADP^+; crowder added, ITC", "value": "little effect"}
    ]}
  ]
}
